One molecule from patent US20150017651A1 (University of Texas, published 2015) can be followed below.

For assay [1], the target named is T1, flag-tagged wild-type Gli1 (human, UniProt P08151 1-1106).
T1 construct: Transiently expressed in BE3 cells without TNFα stimulation; also called flag-Gli1WT; flag-Gli1; not shown: flag tag from vector p3flag-CMV10
T1 sequence (looked up): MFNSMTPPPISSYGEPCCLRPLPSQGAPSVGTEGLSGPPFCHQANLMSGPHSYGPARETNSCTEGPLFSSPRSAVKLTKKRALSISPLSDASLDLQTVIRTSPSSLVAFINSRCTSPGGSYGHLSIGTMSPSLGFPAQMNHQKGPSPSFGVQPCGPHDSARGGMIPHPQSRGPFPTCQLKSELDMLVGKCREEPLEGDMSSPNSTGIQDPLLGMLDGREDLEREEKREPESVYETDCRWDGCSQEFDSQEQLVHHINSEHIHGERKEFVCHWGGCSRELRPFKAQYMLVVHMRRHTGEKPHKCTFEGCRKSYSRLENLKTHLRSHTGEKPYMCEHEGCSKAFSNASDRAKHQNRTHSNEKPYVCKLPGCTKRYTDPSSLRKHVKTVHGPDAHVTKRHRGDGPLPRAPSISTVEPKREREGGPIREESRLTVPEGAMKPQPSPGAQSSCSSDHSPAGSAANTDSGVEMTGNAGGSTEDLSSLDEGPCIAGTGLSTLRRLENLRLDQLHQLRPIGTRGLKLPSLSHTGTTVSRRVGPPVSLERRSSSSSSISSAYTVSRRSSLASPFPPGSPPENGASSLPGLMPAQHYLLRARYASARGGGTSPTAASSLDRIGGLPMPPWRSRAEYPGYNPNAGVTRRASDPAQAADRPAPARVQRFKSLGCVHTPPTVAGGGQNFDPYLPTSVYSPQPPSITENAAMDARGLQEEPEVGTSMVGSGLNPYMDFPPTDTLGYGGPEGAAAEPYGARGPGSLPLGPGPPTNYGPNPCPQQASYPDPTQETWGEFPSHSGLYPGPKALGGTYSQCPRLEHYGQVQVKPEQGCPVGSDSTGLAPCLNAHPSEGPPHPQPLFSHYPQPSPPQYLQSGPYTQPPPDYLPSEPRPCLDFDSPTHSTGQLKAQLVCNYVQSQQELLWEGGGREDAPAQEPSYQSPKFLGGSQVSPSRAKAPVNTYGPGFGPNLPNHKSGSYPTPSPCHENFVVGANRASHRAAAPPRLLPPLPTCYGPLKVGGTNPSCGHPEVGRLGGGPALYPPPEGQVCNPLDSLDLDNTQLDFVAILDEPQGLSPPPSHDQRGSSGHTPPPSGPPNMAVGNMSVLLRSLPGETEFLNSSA
Kind of assay: IP-Western, flag-tagged Gli1WT transfected into BE3 cells.

Assay [2] concerns the target T2, flag-tagged Gli1S84E (human, UniProt P08151 1-1106).
T2 construct: not shown: flag tag from vector p3flag-CMV10
T2 sequence (looked up): T1 sequence (looked up) with S84E
Description: IP-Western, flag-tagged Gli1S84E transfected into BE3 cells. Here is the method: FIGS. 13A-13K. related to FIG. 5. […] FIG. 13A. Luciferase assay of Gli reporter in the stable clones treated by TNFα alone (5 ng/mL) or TNFα plus rapamycin (100 nM). Error bars represent SD (n=3). FIG. 13B. Gli1 immunofluorescence staining in several BE3 stable clones with TNFα treatment. Scale bar=100 μm for original picture and 25 μm for inset. FIG. 13C. The regulation of p-Gli1 by TNFα alone or together with rapamycin (10, 50, and 100 nM) in the BE3 stable clone. FIG. 13D. MTT assay of the various Gli1 stable clones. All cells were counted, and then 3,000 cells were seeded in each well of a 96-well plate. Error bars represent SD (n=3). FIG. 13E. Soft-agar assay of the various Gli1 stable clones. All cells were counted, and then 1,000 cells were mixed with agarose for each well of a 24-well plate. Left, representative microscopic images. Right, quantitation of colony formation. Error bars represent SD (n=3). FIG. 13F. Invasion assay of the various Gli1 stable clones. All cells were counted, and then 1,000 cells were seeded on matrigel in transwells. Left, representative microscopic images from the bottom side of transwell membranes. Right, quantitation of invasive cells. Error bars represent SD (n=3). FIGS. 13G-13I. The assays of MTT (G), soft agar (H), and invasion (I) using the BE3 stable clones treated with TNFα.

Substitutions are numbered along the chain they refer to.

B1: SuFu (other, human, UniProt Q9UMX1 1-484, looked up)
chain: MAELRPSGAPGPTAPPAPGPTAPPAFASLFPPGLHAIYGECRRLYPDQPNPLQVTAIVKYWLGGPDPLDYVSMYRNVGSPSANIPEHWHYISFGLSDLYGDNRVHEFTGTDGPSGFGFELTFRLKRETGESAPPTWPAELMQGLARYVFQSENTFCSGDHVSWHSPLDNSESRIQHMLLTEDPQMQPVQTPFGVVTFLQIVGVCTEELHSAQQWNGQGILELLRTVPIAGGPWLITDMRRGETIFEIDPHLQERVDKGIETDGSNLSGVSAKCAWDDLSRPPEDDEDSRSICIGTQPRRLSGKDTEQIRETLRRGLEINSKPVLPPINPQRQNGLAHDRAPSRKDSLESDSSTAIIPHELIRTRQLESVHLKFNQESGALIPLCLRGRLLHGRHFTYKSITGDMAITFVSTGVEGAFATEEHPYAAHGPWLQILLTEEFVEKMLEDLEDLTSPEEFKLPKEYSWPEKKLKVSILPDVVFDSPLH
notes: also called suppressor of fused
Take B1: the binding result in assay [1] and in assay [2] was “binds” each time.
